Measured values taken from publication PMC7174398.

How the values were obtained:
[1] = target: mHsp60 S464R variant (human); assay: SEC-MALS; mHsp60 (WT or variant) with mHsp10, pre-incubated with 1 mM ATP, 1 mM BeCl2 and 10 mM NaF for 5 min; Superose-6, ~25 C
[2] = target: mHsp60 S464C variant (human); assay: native gel or EMSA; 15 uM mHsp60 variant pre-incubated 5 min without nucleotide or with ADP in 20 mM Tris-HCl pH 7.7, 20 mM MgCl2, 50 mM KCl; 6% native PAGE
[3] = target: mHsp60 S464C variant (human); assay: SEC-MALS; mHsp60 (WT or variant) with mHsp10, pre-incubated with 1 mM ATP, 1 mM BeCl2 and 10 mM NaF for 5 min; Superose-6, ~25 C
[4] = target: mHsp60 S464R/K109E variant (human); assay: as above

mHsp60 S464R variant (natural protein)
stoichiometry N [1]: 7

mHsp60 S464C variant (natural protein)
stoichiometry N [2]: 7 | stoichiometry N [3]: 14

mHsp60 S464R/K109E variant (natural protein)
stoichiometry N [4]: 7
